Measured values published in PMC12671775 (PLOS Genetics, 2025).

Tests used:
[1] = test system: O=Cc1ccccc1; experiment: purified protein
[2] = target: T1, ChuaHNL (hydroxynitrile lyase, CHUA_005138) (Chamberlinius hualienensis, UniProt A0A0H5BR52); type: biochemical
T1 construct: N-terminal His-tagged, produced in Pichia pastoris

Question: With “ChuaHNL (hydroxynitrile lyase, CHUA_005138) (Chamberlinius hualienensis)” as the compound, how does the Km [1] read?
Answer: The Km was 4.31 ± 0.771 mM.

Question: For `N#CC(O)c1ccccc1` (racemic) [MAN, (R,S)-mandelonitrile], which Km [2] is on record?
Answer: The Km was 13.7 ± 2.35 mM.
